From publication doi:10.64898/2025.12.08.693039 come the findings set out here.

This data set deals with LexA (Escherichia coli). Put plainly: EMSA. The following applies: 0.5 nM DNA or nucleosome, 10 mM Tris-HCl pH 8.0, 130 mM NaCl, 10% glycerol, 0.0075% Tween-20, room temperature, 20 min; 5% native acrylamide gel in 0.3x TBE. A general note: A gel shift assay detects complexes by their altered migration in electrophoresis.

The term Kd denotes a measure of binding affinity in units of concentration. Higher therefore signals a looser complex. For the substance YNN1-LexO naked DNA, the Kd was below 5 nM.
